Experimental data reported in patent publication US20160264666A1 (INSERM INSTITUT NATIONAL DE LA SANTE ET DE LA RECHERCHE …, published 2016).

T1: ICOS (Inductible T cell costimulator) (UniProt Q9Y6W8 21-199, limits assumed)
T1 construct: whole, on cells; also called ICOS on JICOS.1 cells
T1 sequence (looked up): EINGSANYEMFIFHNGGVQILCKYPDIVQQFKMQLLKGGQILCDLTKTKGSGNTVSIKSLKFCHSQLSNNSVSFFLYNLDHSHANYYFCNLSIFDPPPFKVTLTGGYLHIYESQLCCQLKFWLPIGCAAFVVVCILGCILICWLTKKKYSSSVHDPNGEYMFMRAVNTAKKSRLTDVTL


Experiments:
[1] = molecular target: T1, ICOS (Inductible T cell costimulator); test: flow cytometry on JICOS.1 cells (ICOS transfectants), mAb titration revealed with GAM-PE; printed as [ED] 50
Protocol: (§1) The inventors developed 5 anti-ICOS Abs. Their isotype was assayed by ELISA. For obtaining an indirect analysis of their affinity for their receptor, mAbs were tested using stable transfectants expressing ICOS. JICOS.1 cells were in the presence of an increasing range of anti-ICOS mAbs labeled with a probe coupled to a fluorochrome (PE-GAM: Goat anti mouse-PE) and the analysis was made thanks to cytometry flow.

[2] = molecular target: T1, ICOS (Inductible T cell costimulator); test: flow cytometry on JICOS.1 cells, inhibition of ICOS L-Fc binding to ICOS, revealed with GAH-PE; printed as [ID] 50
Text: (§2) They used a gradient of concentration of anti-ICOS mAbs and theyr reveled the fixation to ICOS L Fc thanks to a probe coupled to a fluorochrom (GAH-PE: Goat anti-human-PE). The analysis was made by flow cytometry.

[3] = molecular target: T1, ICOS (Inductible T cell costimulator); test: flow cytometry on JICOS.1 cells, mAb titration revealed with GAM-PE; printed as ED 50
Protocol: as §1

[4] = molecular target: T1, ICOS (Inductible T cell costimulator); test: flow cytometry on JICOS.1 cells, inhibition of ICOS L-Fc binding to ICOS; printed as ID 50
Text: as §2

EC50 [1] [µg/mL]	IC50 [2] [µg/mL]	EC50 [3] [µg/mL]	IC50 [4] [µg/mL]	Binder
1.6	17			ICOS 88-2 (antibody, V domains shown, Mouse hybridoma monoclonal antibody; isotype printed as IgG1-L; Agonist of ICOS; also called anti-ICOS mAb 88-2) VH: QVQLQQPGAELVRPGASVKLSCKASGYSFTSYWINWVKQRPGQGLEWIGNIYPSDSYTNYNQMFKDKATLTVDKSSNTAYMQLTSPTSEDSAVYYCTRWNLSYYFDNNYYLDYWGQGTTLTVSS VL: DIVMTQAAPSVPVTPGESVSISCRSSKSLLHSNGNTYLYWFLQRPGQSPQLLIYRMSNLASGVPDRFSGSGSGTAFTLRISRVEAEDVGVYYCMQHLEYPWTFGGGTKLEIK
0.06	0.29	< 0.5	< 1000	ICOS 314-8 (antibody, V domains shown, Mouse hybridoma monoclonal antibody; isotype printed as IgG1-K; Antagonist of ICOS) VH: QVQLQQPGTELMKPGASVKLSCKASGYTFTTYWMHWVKQRPGQGLEWIGEIDPSDSYVNYNQNFKGKATLTVDKSSSTAYIQLSSLTSEDSAVYFCARSPDYYGTSLAWFDYWGQGTLVTVST VL: DIVMTQAAPSVPVTPGESVSISCRSSKSPLHSNGNIYLYWFLQRPGQSPQLLIYRMSNLASGVPDRFSGSGSGTTFTLKISRVEAEDVGVYYCMQHLEYPYTFGGGTKLEIK
